± gives the uncertainty stated by the source.
B1: Membrane-associated guanylate kinase, WW and PDZ domain-containing protein 2, residues 601 to 682; numbered along this chain, Q86UL8 (parent)
chain: AELMTLTIVKGAQGFGFTIADSPTGQRVKQILDIQGCPGLCEGDLIVEINQQNVQNLSHTEVVDILKDCPIGSETSLIIHRG

Variants of: B1
Experiment: abundance fitness (aPCA) (normalised: wild type 0, dead -1); higher = more abundant; growth selection in yeast, the domain comes from the species named
Settings: Homo sapiens

First: S58C
Second: S58P
The abundance fitness of the first is higher: 0.052 ± 0.11 for the first, -0.174 ± 0.088 for the second.

S58V and S58N are within error of each other in abundance fitness: -0.093 ± 0.079 for the first, -0.007 ± 0.23 for the second.

S58W and S58K are within error of each other in abundance fitness: -0.021 ± 0.12 for the first, -0.236 ± 0.17 for the second.

S58R and S58Q are within error of each other in abundance fitness: -0.119 ± 0.075 for the first, -0.057 ± 0.092 for the second.

S58T and S58G are within error of each other in abundance fitness: -0.135 ± 0.095 for the first, 0.015 ± 0.1 for the second.

S58F and S58E are within error of each other in abundance fitness: -0.29 ± 0.16 for the first, -0.065 ± 0.092 for the second.

S58D and S58Y are within error of each other in abundance fitness: -0.183 ± 0.17 for the first, -0.226 ± 0.26 for the second.

Q55L and Q55E are within error of each other in abundance fitness: -0.106 ± 0.072 for the first, -0.029 ± 0.065 for the second.

Q55W and Q55K are within error of each other in abundance fitness: -0.133 ± 0.082 for the first, -0.276 ± 0.18 for the second.

Q55M and Q55A are within error of each other in abundance fitness: -0.01 ± 0.16 for the first, -0.069 ± 0.095 for the second.

Q55D and Q55I are within error of each other in abundance fitness: -0.111 ± 0.16 for the first, -0.02 ± 0.12 for the second.

Q55C and Q55G are within error of each other in abundance fitness: -0.111 ± 0.14 for the first, 0.073 ± 0.059 for the second.

Q55R and Q55F are within error of each other in abundance fitness: 0.004 ± 0.052 for the first, 0.043 ± 0.45 for the second.

Q55V and Q55S are within error of each other in abundance fitness: -0.027 ± 0.09 for the first, -0.172 ± 0.097 for the second.

Q55N and V54S are within error of each other in abundance fitness: 0.039 ± 0.32 for the first, -0.243 ± 0.034 for the second.

V54P and V54K are within error of each other in abundance fitness: -0.806 ± 0.064 for the first, -0.855 ± 0.1 for the second.

Going from V54I to V54R, the abundance fitness falls from -0.07 ± 0.04 to -0.939 ± 0.082.

Going from V54Y to V54A, the abundance fitness rises from -1 ± 0.12 to -0.053 ± 0.04.

First: V54G
Second: V54Q
The abundance fitness of the first is higher: -0.523 ± 0.049 for the first, -0.688 ± 0.064 for the second.

V54L and V54T are within error of each other in abundance fitness: -0.089 ± 0.029 for the first, -0.037 ± 0.035 for the second.

V54E and V54F are within error of each other in abundance fitness: -0.906 ± 0.16 for the first, -0.867 ± 0.082 for the second.

V54D and V54H are within error of each other in abundance fitness: -0.964 ± 0.14 for the first, -1.18 ± 0.15 for the second.

First: V54C
Second: V54W
The abundance fitness of the first is higher: -0.086 ± 0.052 for the first, -0.779 ± 0.11 for the second.

Q52N and Q52I are within error of each other in abundance fitness: 0.017 ± 0.046 for the first, 0.038 ± 0.051 for the second.

Q52S and Q52L are within error of each other in abundance fitness: -0.037 ± 0.037 for the first, -0.072 ± 0.03 for the second.

Q52W and Q52H are within error of each other in abundance fitness: -0.095 ± 0.049 for the first, -0.029 ± 0.043 for the second.

Q52D and Q52M are within error of each other in abundance fitness: 0.027 ± 0.061 for the first, 0.01 ± 0.045 for the second.

Q52K and Q52Y are within error of each other in abundance fitness: 0.049 ± 0.048 for the first, -0.024 ± 0.05 for the second.

Q52A and Q52T are within error of each other in abundance fitness: -0.037 ± 0.044 for the first, -0.018 ± 0.038 for the second.

Q52E and Q52C are within error of each other in abundance fitness: -0.016 ± 0.069 for the first, -0.052 ± 0.066 for the second.

Q52V and Q52F are within error of each other in abundance fitness: -0.039 ± 0.039 for the first, -0.054 ± 0.045 for the second.

Q52R and H59W are within error of each other in abundance fitness: -0.007 ± 0.037 for the first, -0.074 ± 0.1 for the second.

H59L and H59G are within error of each other in abundance fitness: -0.01 ± 0.065 for the first, -0.018 ± 0.068 for the second.

H59K and H59Y are within error of each other in abundance fitness: -0.132 ± 0.092 for the first, -0.109 ± 0.11 for the second.

H59R and H59M are within error of each other in abundance fitness: -0.009 ± 0.057 for the first, 0.065 ± 0.1 for the second.

H59T and H59S are within error of each other in abundance fitness: -0.132 ± 0.1 for the first, -0.038 ± 0.083 for the second.

H59A and H59P are within error of each other in abundance fitness: -0.088 ± 0.077 for the first, -0.094 ± 0.083 for the second.

H59N and H59I are within error of each other in abundance fitness: -0.009 ± 0.27 for the first, -0.142 ± 0.16 for the second.

H59Q and H59D are within error of each other in abundance fitness: -0.014 ± 0.1 for the first, -0.176 ± 0.093 for the second.

First: H59E
Second: N56V
The abundance fitness of the first is higher: 0.126 ± 0.15 for the first, -0.128 ± 0.094 for the second.

N56W and N56T are within error of each other in abundance fitness: 0.197 ± 0.28 for the first, -0.03 ± 0.11 for the second.

N56P and N56K are within error of each other in abundance fitness: 0.072 ± 0.1 for the first, -0.046 ± 0.095 for the second.

N56G and N56S are within error of each other in abundance fitness: 0.003 ± 0.079 for the first, -0.053 ± 0.1 for the second.

N56Y and N56L are within error of each other in abundance fitness: 0.074 ± 0.42 for the first, -0.051 ± 0.069 for the second.

N56A and N56M are within error of each other in abundance fitness: -0.076 ± 0.071 for the first, -0.06 ± 0.11 for the second.

N56F and N56R are within error of each other in abundance fitness: -0.099 ± 0.25 for the first, -0.036 ± 0.052 for the second.

N56Q and N56C are within error of each other in abundance fitness: -0.099 ± 0.12 for the first, -0.326 ± 0.22 for the second.

N56E and Q51M are within error of each other in abundance fitness: 0.221 ± 0.23 for the first, -0.042 ± 0.047 for the second.

Compared with Q51F, Q51N is higher in abundance fitness: -0.063 ± 0.041 for the first, 0.045 ± 0.044 for the second.

Q51V and Q51W are within error of each other in abundance fitness: -0.088 ± 0.042 for the first, -0.09 ± 0.055 for the second.

Compared with Q51P, Q51T is higher in abundance fitness: -0.749 ± 0.07 for the first, 0.005 ± 0.039 for the second.

Q51K and Q51E are within error of each other in abundance fitness: -0.024 ± 0.042 for the first, -0.013 ± 0.063 for the second.

Q51S and Q51A are within error of each other in abundance fitness: -0.018 ± 0.038 for the first, -0.012 ± 0.043 for the second.

Q51L and Q51C are within error of each other in abundance fitness: -0.064 ± 0.029 for the first, -0.067 ± 0.059 for the second.

Q51D and Q51H are within error of each other in abundance fitness: -0.024 ± 0.05 for the first, -0.016 ± 0.041 for the second.

Compared with Q51I, L57E is higher in abundance fitness: -0.269 ± 0.048 for the first, -0.038 ± 0.079 for the second.

Compared with L57M, L57S is higher in abundance fitness: -0.283 ± 0.14 for the first, 0.028 ± 0.06 for the second.

L57Q and L57G are within error of each other in abundance fitness: -0.081 ± 0.13 for the first, -0.152 ± 0.065 for the second.

L57V and L57N are within error of each other in abundance fitness: -0.029 ± 0.067 for the first, 0.076 ± 0.16 for the second.

L57D and L57T are within error of each other in abundance fitness: -0.109 ± 0.19 for the first, -0.128 ± 0.14 for the second.

L57W and L57H are within error of each other in abundance fitness: -0.13 ± 0.11 for the first, -0.008 ± 0.14 for the second.

L57K and L57C are within error of each other in abundance fitness: -0.108 ± 0.15 for the first, -0.046 ± 0.15 for the second.

I49S and I49R are within error of each other in abundance fitness: -0.97 ± 0.49 for the first, -0.875 ± 0.17 for the second.

Going from I49W to I49P, the abundance fitness falls from -0.241 ± 0.093 to -1.01 ± 0.36.

First: I49M
Second: I49G
The abundance fitness of the first is higher: -0.195 ± 0.13 for the first, -1.08 ± 0.31 for the second.

I49T and I49L are within error of each other in abundance fitness: -0.371 ± 0.34 for the first, 0.011 ± 0.087 for the second.

First: I49V
Second: I49H
The abundance fitness of the first is higher: 0.072 ± 0.082 for the first, -0.964 ± 0.23 for the second.

I49Y and N53I are within error of each other in abundance fitness: -0.14 ± 0.28 for the first, -0.076 ± 0.04 for the second.

N53E and N53A are within error of each other in abundance fitness: -0.043 ± 0.047 for the first, -0.097 ± 0.034 for the second.

N53P and N53T are within error of each other in abundance fitness: -0.001 ± 0.034 for the first, -0.042 ± 0.035 for the second.

Compared with N53H, N53W is lower in abundance fitness: -0.045 ± 0.036 for the first, -0.201 ± 0.049 for the second.

N53Q and N53D are the same in abundance fitness: -0.025 ± 0.042 for the first, -0.025 ± 0.043 for the second.

N53Y and N53S are within error of each other in abundance fitness: -0.064 ± 0.038 for the first, -0.022 ± 0.033 for the second.

N53K and N53G are within error of each other in abundance fitness: -0.021 ± 0.042 for the first, -0.051 ± 0.037 for the second.

N53F and N53M are within error of each other in abundance fitness: -0.095 ± 0.038 for the first, -0.043 ± 0.05 for the second.

N53L and N53R are within error of each other in abundance fitness: -0.069 ± 0.03 for the first, -0.061 ± 0.033 for the second.

N50V and N50Y are within error of each other in abundance fitness: -0.626 ± 0.17 for the first, -0.386 ± 0.27 for the second.

Going from N50L to N50S, the abundance fitness rises from -0.219 ± 0.1 to -0.03 ± 0.068.

N50K and N50H are within error of each other in abundance fitness: -0.011 ± 0.12 for the first, 0.024 ± 0.13 for the second.

Compared with N50F, N50R is higher in abundance fitness: -0.71 ± 0.48 for the first, -0.068 ± 0.057 for the second.

Going from N50T to N50G, the abundance fitness rises from -0.455 ± 0.15 to -0.058 ± 0.064.

N50D and N50M are within error of each other in abundance fitness: -0.084 ± 0.23 for the first, -0.108 ± 0.1 for the second.

N50W and N50C are within error of each other in abundance fitness: -0.433 ± 0.15 for the first, -0.71 ± 0.43 for the second.

N50E gave an abundance fitness of 0.013 ± 0.16.
